Positions count from the first letter of the chain named. Numbers in names are those of the source.

Consider three molecules from US20150158912A1 (CLEVELAND CLINIC FOUNDATION, published 2015).

Assay [1] addresses T1, V5-tagged human IL-17RA, wild type (human, UniProt Q96F46 33-866, limits assumed).
T1 construct: Expressed in HeLa cells and immunoprecipitated from the lysate; also called V5-tagged IL-17RA; the wild-type receptor
T1 sequence (looked up): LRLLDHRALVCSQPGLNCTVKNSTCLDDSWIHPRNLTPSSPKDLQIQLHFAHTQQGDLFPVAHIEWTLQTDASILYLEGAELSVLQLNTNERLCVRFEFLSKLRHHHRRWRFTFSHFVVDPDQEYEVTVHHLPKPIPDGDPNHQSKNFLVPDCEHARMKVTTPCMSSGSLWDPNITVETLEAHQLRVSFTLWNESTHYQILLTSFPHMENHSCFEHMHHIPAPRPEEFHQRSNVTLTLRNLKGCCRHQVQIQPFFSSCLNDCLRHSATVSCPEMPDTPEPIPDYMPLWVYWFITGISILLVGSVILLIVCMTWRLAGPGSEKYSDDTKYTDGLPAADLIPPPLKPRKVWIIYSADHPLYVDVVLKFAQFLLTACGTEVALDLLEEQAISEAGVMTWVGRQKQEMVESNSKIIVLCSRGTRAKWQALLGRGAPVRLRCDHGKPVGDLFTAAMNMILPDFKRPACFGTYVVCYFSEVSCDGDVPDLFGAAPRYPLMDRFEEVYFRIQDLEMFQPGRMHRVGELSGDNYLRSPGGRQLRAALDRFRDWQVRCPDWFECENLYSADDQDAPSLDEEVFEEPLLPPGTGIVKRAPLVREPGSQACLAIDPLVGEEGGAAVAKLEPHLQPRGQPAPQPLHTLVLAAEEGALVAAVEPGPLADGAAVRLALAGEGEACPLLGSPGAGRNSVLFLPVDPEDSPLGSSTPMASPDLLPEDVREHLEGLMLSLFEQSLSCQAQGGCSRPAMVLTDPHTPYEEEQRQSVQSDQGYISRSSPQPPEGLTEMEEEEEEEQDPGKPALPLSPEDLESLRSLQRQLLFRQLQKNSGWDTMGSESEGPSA
Put plainly: co-immunoprecipitation, as told back in Example 9.

Assay [2] deals with T2, Act1 in IL-17RB-deficient MEFs reconstituted with Myc-tagged IL-17RB (mouse (cells are mouse embryonic …, UniProt Q8N7N6 1-555)).
T2 construct: That the co-precipitated Act1 is the cells' own is read from the description of the experiment
T2 sequence (looked up): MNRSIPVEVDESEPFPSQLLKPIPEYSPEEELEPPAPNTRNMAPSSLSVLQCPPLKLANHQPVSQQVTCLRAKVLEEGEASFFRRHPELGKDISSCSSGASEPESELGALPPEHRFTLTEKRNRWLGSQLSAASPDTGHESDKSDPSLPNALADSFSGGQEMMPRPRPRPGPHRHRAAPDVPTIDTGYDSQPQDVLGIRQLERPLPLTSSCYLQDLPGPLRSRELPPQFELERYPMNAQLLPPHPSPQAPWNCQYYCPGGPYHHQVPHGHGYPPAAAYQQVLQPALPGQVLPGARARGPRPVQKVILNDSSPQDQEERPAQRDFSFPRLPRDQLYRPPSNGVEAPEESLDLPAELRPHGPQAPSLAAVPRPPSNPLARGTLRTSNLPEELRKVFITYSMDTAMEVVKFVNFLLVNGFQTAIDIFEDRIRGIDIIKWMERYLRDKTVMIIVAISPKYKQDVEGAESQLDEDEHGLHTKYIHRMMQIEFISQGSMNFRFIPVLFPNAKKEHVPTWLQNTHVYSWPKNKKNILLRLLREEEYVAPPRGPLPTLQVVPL
Put plainly: co-immunoprecipitation in reconstituted IL-17RB-deficient MEFs (IP anti-Myc).

B1: FLAG-tagged mouse Act1 point mutant H472D (other, UniProt Q8N7N6 1-555, looked up)
chain: T2 sequence (looked up) with H475D
B1: the binding result in assay [1] is listed as “no binding”.

B2: Myc-tagged mouse IL-17RB point mutant L419D (receptor, UniProt Q9JIP3 18-499, looked up)
chain: REPTIQCGSETGPSPEWMVQHTLTPGDLRDLQVELVKTSVAAEEFSILMNISWILRADASIRLLKATKICVSGKNNMNSYSCVRCNYTEAFQSQTRPSGGKWTFSYVGFPVELSTLYLISAHNIPNANMNEDSPSLSVNFTSPGCLNHVMKYKKQCTEAGSLWDPDITACKKNEKMVEVNFTTNPLGNRYTILIQRDTTLGFSRVLENKLMRTSVAIPVTEESEGAVVQLTPYLHTCGNDCIRREGTVVLCSETSAPIPPDDNRRMLGGWLPLFLVLLVAVWVLAAGIYLTWRQGRSTKTSFPISTMLLPLIKVLVVYPSEICFHHTVCRFTDFLQNYCRSEVILEKWQKKKIAEMGPVQWLTTQKQAADKVVFLLPSDVPTLCDSACGHNEGSARENSQDDFPLAFNLFCSDFSSQTHLHKYLVVYLGGADLKGDYNALSVCPQYHLMKDATAFHTELLKATQSMSVKKRSQACHDSCSPL
In the case of B2, the binding result in assay [2] was “no binding”.

B3: Myc-tagged mouse IL-17RB point mutant L422D (receptor, UniProt Q9JIP3 18-499, looked up)
chain: B2 chain with D402L, L405D
As to B3, the binding result in assay [2] is “no binding”.
